# B1: 인간 단일클론항체 MKJP2 (전체 IgG) (antibody, V domains shown)
# VH: EVQLLESGGGLAQPGGSLRLSCAASGFTFSGYAMSWVRQAPGKGLEWVSAISSDGGSTYYADSVKGRFTISRDNSKNTLYLQMNSLRAEDTAVYYCARDPWFSRWTAFDYWGQGTLVTVSS
# VL: QSVLTQPPSASGTPGQRVTISCSGSSSNIGNNAVNWYQQLPGTAPKLLIYSNSKRPSGVPDRFSGSKSGTSASLAISGLRSEDEADYYCGTWDYSLSGYVFGGGTKLTVLG
# notes: Variable regions were cloned into the vectors E-A12H-ID (heavy) and pEA12L-ID (light); also called MKJP2 항체; 항 IGF-1R 항체 MKJP2
# Biological target: T1, 재조합 인슐린 유사 성장인자-1 수용체 (IGF-1R, R&D system, 391-GR), extracellular domain Met1-Asn932 (human, UniProt P08069 31-932)
# T1 construct: range 1-932; Bought recombinant protein; also called 재조합 IGF-1R; hIGF-1R
# T1 sequence (P08069 31-932 limits assumed): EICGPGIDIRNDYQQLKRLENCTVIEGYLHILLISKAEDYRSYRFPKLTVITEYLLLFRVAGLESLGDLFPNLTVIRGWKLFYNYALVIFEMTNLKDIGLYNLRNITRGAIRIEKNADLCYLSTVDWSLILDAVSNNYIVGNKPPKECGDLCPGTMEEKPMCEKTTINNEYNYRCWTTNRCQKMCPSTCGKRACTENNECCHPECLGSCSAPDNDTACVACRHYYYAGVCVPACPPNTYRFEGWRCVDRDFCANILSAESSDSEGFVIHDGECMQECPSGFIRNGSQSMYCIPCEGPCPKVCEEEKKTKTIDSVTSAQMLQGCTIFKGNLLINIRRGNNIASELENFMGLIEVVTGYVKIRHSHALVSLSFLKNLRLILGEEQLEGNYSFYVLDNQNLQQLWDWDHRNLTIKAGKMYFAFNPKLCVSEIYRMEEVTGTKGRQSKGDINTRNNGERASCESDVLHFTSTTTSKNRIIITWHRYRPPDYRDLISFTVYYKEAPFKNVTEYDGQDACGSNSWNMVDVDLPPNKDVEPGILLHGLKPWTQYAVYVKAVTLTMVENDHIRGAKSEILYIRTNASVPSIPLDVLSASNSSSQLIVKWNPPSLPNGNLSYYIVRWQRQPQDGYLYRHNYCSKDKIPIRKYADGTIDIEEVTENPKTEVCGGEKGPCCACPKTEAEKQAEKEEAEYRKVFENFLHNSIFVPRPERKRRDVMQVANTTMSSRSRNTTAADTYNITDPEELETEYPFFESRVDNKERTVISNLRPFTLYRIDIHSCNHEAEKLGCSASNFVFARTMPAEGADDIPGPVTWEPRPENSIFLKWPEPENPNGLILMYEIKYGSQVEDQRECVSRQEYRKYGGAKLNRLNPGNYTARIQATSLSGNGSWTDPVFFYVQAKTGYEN
# Experiment: SPR (BiaCore T200), MKJP2 captured on anti-human IgG Fc CM5 chip, IGF-1R injected at 0.78-12.5 nM
binder,measurement,value
B1,Kd,0.173 nM

# — patent KR20140138533A (dated 2014)
